According to patent US20150259430A1 (MAB DISCOVERY, published 2015):
Blank lines part the entries; values can stand above or below the binder they belong to.

Assays:
[1] = molecular target: T1, recombinant Fc chimeric conjugate of human c-Met (human, UniProt P08581 25-932); assay: ELISA, coated antigen; supernatant IgG 51.60 ng/mL
T1 construct: extracellular domain; Coated on the ELISA plate
Method: (§1) Microtiter plates were coated with a) c-Met, IGF-1R, EGFR, HER2, and/or HER3 protein or b) EGFR, HER2, and/or HER3 (recombinant Fc chimeric conjugates of human c-Met, IGF-1R, EGFR, HER2, HER3 or IL12 Rβ1). After a blocking process, specific antibodies from B-cell supernatants bind to the targets and are then detected by a POD-labeled anti-rabbit IgG antibody. The IL12R binding was used as a counter-screen.
(§2) 12.5 μL 0.5 μg/mL protein in PBS was transferred to a microtiter plate incubated and washed 3× with Wash Buffer. 90 μL Block Buffer was added to each well, incubated and washed. 12.5 μL Standard Antibody (Anti-EGF-Receptor; HER2 Rabbit anti-Human Monoclonal (extracellular domain) (SP3) Antibody; HER3 (N-terminal) antibody; start concentration 2 μg/ml; IL-12Rbeta1 antibody start concentration 500 ng/ml) in 1:2 dilutions or sample diluted in ELISA buffer was added, incubated and washed. 12.5 μl 1:5000 POD-Antibody (Anti-rabbit IgG, peroxidase-linked species-specific Fab2 fragment (from donkey) (ECL); assay dilution: 1:5000) in Elisa Buffer was added, incubated and washed. 15 μl TMB was added and 15 μl HCl was added after sufficient development. Absorbance (Optical Density O.D.) was read at 450 nm/620 nm.

[2] = molecular target: T2, recombinant Fc chimeric conjugate of human HER2 (human, UniProt P04626 23-652); assay: ELISA, coated antigen; supernatant IgG 51.60 ng/mL
T2 construct: extracellular domain; Coated on the ELISA plate
Method: as §1, §2

[3] = molecular target: T3, recombinant Fc chimeric conjugate of human HER3 (human, UniProt P21860 20-643); assay: ELISA, coated antigen; supernatant IgG 51.60 ng/mL
T3 construct: extracellular domain; Coated on the ELISA plate
Method: as §1, §2

[4] = molecular target: T1, recombinant Fc chimeric conjugate of …; assay: ELISA, coated antigen; supernatant IgG 183.28 ng/mL
Method: as §1, §2

[5] = molecular target: T2, recombinant Fc chimeric conjugate of …; assay: as above
Method: as §1, §2

[6] = molecular target: T4, recombinant Fc chimeric conjugate of human EGFR (human, UniProt P00533 25-645); assay: as above
T4 construct: extracellular domain; Coated on the ELISA plate; also called HER1; Her1
Method: as §1, §2

[7] = molecular target: T3, recombinant Fc chimeric conjugate of …; assay: as above
Method: as §1, §2

[8] = molecular target: T1, recombinant Fc chimeric conjugate of …; assay: ELISA, coated antigen; supernatant IgG 69.04 ng/mL
Method: as §1, §2

[9] = molecular target: T2, recombinant Fc chimeric conjugate of …; assay: ELISA, coated antigen; supernatant IgG 69.04 ng/mL
Method: as §1, §2

[10] = molecular target: T3, recombinant Fc chimeric conjugate of …; assay: ELISA, coated antigen; supernatant IgG 69.04 ng/mL
Method: as §1, §2

[11] = molecular target: T5, recombinant Fc chimeric conjugate of human IGF-1R (human, UniProt P08069 31-935); assay: ELISA, coated antigen
T5 construct: extracellular domain; Coated on the ELISA plate
Method: as §1, §2

[12] = molecular target: T1, recombinant Fc chimeric conjugate of …; assay: ELISA, coated antigen
Method: as §1, §2

[13] = molecular target: T2, recombinant Fc chimeric conjugate of …; assay: ELISA, coated antigen
Method: as §1, §2

[14] = molecular target: T4, recombinant Fc chimeric conjugate of …; assay: ELISA, coated antigen
Method: as §1, §2

[15] = molecular target: T2, recombinant Fc chimeric conjugate of …; assay: ELISA, coated antigen; supernatant IgG 1500.0 ng/ml
Method: as §1, §2

[16] = molecular target: T4, recombinant Fc chimeric conjugate of …; assay: as above
Method: as §1, §2

[17] = molecular target: T3, recombinant Fc chimeric conjugate of …; assay: as above
Method: as §1, §2

T3 sequence (P21860 20-643, change not shown): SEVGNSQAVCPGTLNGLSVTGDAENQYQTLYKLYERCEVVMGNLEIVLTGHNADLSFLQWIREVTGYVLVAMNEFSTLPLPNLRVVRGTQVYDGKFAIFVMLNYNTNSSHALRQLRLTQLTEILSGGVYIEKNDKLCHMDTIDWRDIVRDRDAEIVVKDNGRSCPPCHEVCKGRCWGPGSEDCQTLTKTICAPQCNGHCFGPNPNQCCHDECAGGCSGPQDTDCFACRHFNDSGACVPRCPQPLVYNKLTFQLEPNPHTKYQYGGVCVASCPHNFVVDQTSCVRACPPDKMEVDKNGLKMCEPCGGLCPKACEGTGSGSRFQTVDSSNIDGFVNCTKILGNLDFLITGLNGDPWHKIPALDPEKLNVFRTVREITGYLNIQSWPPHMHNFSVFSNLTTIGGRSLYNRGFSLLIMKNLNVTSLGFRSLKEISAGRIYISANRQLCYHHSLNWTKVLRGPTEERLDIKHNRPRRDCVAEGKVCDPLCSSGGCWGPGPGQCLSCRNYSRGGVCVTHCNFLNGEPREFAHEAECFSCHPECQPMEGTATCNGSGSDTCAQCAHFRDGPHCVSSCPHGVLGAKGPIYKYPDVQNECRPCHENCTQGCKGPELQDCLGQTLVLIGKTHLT
T1 sequence (P08581 25-932, change not shown): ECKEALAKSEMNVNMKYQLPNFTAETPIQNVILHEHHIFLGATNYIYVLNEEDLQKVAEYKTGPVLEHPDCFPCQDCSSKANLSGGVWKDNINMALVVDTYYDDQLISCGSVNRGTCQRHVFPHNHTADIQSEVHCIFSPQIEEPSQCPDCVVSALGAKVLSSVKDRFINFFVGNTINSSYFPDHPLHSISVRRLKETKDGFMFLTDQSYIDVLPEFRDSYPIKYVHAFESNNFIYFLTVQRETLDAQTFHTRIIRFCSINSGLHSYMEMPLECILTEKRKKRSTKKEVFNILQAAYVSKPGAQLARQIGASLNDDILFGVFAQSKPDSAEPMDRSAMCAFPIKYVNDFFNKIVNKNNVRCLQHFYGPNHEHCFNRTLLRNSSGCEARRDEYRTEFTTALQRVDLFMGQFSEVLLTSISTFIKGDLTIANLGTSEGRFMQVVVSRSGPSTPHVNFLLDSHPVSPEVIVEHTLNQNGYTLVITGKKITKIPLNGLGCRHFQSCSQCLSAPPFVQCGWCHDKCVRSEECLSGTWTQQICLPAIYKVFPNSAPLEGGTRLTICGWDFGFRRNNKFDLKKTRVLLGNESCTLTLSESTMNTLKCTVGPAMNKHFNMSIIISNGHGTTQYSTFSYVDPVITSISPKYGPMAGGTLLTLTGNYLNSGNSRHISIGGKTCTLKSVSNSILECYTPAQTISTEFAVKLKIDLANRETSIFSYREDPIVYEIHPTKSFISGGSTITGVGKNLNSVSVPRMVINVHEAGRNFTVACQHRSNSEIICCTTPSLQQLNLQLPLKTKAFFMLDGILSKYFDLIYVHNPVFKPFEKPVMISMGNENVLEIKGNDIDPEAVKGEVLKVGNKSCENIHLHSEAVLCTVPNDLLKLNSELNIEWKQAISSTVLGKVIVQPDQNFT
T5 sequence (P08069 31-935, change not shown): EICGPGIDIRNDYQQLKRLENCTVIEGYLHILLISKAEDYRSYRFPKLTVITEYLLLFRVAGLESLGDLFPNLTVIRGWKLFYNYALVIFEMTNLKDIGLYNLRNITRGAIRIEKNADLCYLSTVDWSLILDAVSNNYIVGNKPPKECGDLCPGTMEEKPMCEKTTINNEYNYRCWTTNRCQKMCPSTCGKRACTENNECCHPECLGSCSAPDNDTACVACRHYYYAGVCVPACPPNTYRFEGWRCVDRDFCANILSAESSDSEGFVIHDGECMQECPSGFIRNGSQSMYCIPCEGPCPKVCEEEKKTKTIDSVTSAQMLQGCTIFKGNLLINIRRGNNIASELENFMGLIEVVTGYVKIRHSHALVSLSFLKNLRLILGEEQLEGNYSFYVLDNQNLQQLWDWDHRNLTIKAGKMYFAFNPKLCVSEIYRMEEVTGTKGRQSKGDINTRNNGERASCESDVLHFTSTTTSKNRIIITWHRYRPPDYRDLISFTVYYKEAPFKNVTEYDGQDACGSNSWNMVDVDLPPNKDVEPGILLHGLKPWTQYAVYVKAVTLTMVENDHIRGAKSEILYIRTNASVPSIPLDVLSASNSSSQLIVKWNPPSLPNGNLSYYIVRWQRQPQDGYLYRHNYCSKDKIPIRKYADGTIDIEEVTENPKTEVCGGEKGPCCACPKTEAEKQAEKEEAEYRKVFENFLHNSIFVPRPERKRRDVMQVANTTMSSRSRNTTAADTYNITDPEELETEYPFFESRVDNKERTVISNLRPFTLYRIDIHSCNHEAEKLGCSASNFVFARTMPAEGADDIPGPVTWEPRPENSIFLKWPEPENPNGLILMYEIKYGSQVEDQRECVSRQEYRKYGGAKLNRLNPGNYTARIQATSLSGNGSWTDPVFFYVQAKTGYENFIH

Optical density (OD) [1]: 0.144 OD | Optical density (OD) [2]: 0.112 OD | Optical density (OD) [3]: 0.242 OD
B1: Antibody 77.B08 (antibody, V domains shown)
VH: QEHLVESGGGLVQPEGSLTLTCTASGFDFSSDDMSWVRQAPGKGLEWIGVIGTGNGGTYYASWAKGRFTISKTSSTTVTLQMTSLTAADTATYFCAAFWGLWGPGTLVTVSS
VL: AQVLTQTASPVSTPVGGTVTITCQSSQSVYNNNRLAWFQQKPGQPPKLLIYTASTLASGVPSRFKGSGSGTQFTLTISDLECDDAATYYCAGGYSTDIYTFGGGTEVVVR
notes: rabbit IgG in B-cell supernatant

Optical density (OD) [4]: 0.7 OD | Optical density (OD) [5]: 0.402 OD | Optical density (OD) [6]: 0.405 OD | Optical density (OD) [7]: 1.14 OD
B2: Antibody B08 (antibody, V domains shown)
VH: QEHLVESGGGLVQPEGSLTLTCTASGFDFSSDDMSWVRQAPGKGLEWIGVIGTGNGGTYYASWAKGRFTISKTSSTTVTLQMTSLTAADTATYFCAAFWGLWGPGTLVTVSS
VL: AQVLTQTASPVSAAVGGTVTITCQSSQSVYNNIRLAWFQQKPGQPPKLLIYTTSSLASGVPSRFKGSGSGTQFTLTISDLECDDAATYYCAGGYSSDIYTFGGGTEVVVR
notes: as for B1

Optical density (OD) [8]: 0.149 OD | Optical density (OD) [9]: 0.119 OD | Optical density (OD) [10]: 1.76 OD | binding result [11]: no binding (tested: OD 0.1 or lower)
B3: Antibody D11 (antibody, V domains shown)
VH: QEHLVESGGGLVQPEGSLTLTCTASGFDFSSDDMSWVRQAPGKGLEWIGVIGTGNGGTYYASWAKGRFTISKTSSTTVTLQMTSLTAADTATYFCAAFWGLWGPGTLVTVSS
VL: AQVLTQTPSPVSAAVGGTVTINCQSSQNVYRNNRLAWFQQKPGQPPKLLIYTASTLASGVPSRFKGSGSGTQFTLTISDLECDDAATYYCAGGYSTDIYTFGGGTEVVVR
notes: as for B1

binding result [12]: no binding (tested: OD 0.1 or lower) | binding result [13]: no binding (tested: OD 0.1 or lower) | binding result [14]: no binding (tested: OD 0.1 or lower)
B4: Antibody 077.D03 (antibody, V domains shown)
VH: QSVEESGGRLVTPGTPLTLTCTVSGIDLSSNAMSWVRQAPGKGLEWIGFISSSGTTYYASWAKGRFTISKTSTTVDLKITSPTTEDTATYFCTRFDLWGQGTLVTVSS
VL: DVVMTQTPASVSEPVGGTVTINCQASQSITTALAWYQQKPGQPPKLLIYKASTLASGVSSRFKGSGSGAEYTLTISDLECADAATYYCQCTGYDTSYVGGFGGGTEVVVK
notes: as for B1

Optical density (OD) [15]: 1.8 OD | Optical density (OD) [16]: 1.1 OD | Optical density (OD) [17]: 0.8 OD
B5: Antibody 86 (antibody, V domains shown)
VH: QEQLKESGGGLVTPGGTLTLTCTVSGIDLSNYAMVWVRQAPGKGLEWIGIIYTTASTTYANWAKGRFTISKTSTTVDLKITSPTTEDTATYFCVRRSGWDGFDPWGPGTLVTVSS
VL: AQVLTQTPASVSAAVGGTVTINCQASESISSYLNWYQQKPGQPPKRLIYRTSTLASGVPSRFKGSGSGTDFTLTISGVECADAATYYCQQDWSSSDVENVFGGGTEVVVK
notes: as for B1
